Article doi:10.1101/2025.03.20.644338 (bioRxiv, 2025)

Legend:
Experiment in all cases: ITC
[1] = molecular target: wild-type mouse Rbpj core (residues 53-474) (mouse, UniProt P31266 53-474)
[2] = molecular target: mouse Rbpj core (residues 53-474) S358R variant (mouse, UniProt P31266 53-474, S358R)
[3] = molecular target: mouse Rbpj core (residues 53-474) R91G variant (mouse, UniProt P31266 53-474, R91G)
[4] = molecular target: mouse Rbpj core (residues 53-474) F92V variant (mouse, UniProt P31266 53-474, F92V)
Sequence of mouse Rbpj core (residues 53-474) F92V variant (P31266 53-474 F92V): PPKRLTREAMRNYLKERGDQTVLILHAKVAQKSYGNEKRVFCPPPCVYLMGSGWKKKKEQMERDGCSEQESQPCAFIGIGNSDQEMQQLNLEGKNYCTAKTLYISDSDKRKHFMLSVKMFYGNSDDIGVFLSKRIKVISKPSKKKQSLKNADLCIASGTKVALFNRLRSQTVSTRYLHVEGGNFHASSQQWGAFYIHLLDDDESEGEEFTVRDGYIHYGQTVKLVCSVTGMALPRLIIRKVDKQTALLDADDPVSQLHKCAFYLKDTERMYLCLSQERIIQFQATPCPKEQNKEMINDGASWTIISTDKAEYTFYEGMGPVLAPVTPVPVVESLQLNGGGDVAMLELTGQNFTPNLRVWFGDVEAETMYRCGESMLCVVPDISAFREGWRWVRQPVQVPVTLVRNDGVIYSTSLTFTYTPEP

Measured: binding result

Sequence of wild-type mouse Rbpj core (residues 53-474) (P31266 53-474): as the sequence (P31266 53-474 F92V) above, with V40F counted along it
Sequence of mouse Rbpj core (residues 53-474) S358R variant (P31266 53-474 S358R): as the sequence (P31266 53-474 F92V) above, with V40F, S306R counted along it
Sequence of mouse Rbpj core (residues 53-474) R91G variant (P31266 53-474 R91G): as the sequence (P31266 53-474 F92V) above, with R39G, V40F counted along it

VLLSRKRRRQHGQLWFPEGFKVSEASKK [peptide consisting of residues 1754-1781 of human NOTCH1]
binds: all assays above

B1: human SHARP residues 2776-2833 (domain or fragment)
chain: RASANENSRFHPGSMPVIDDRPADAGSGAGLRVNTSEGVVLLSYSGQKTEGPQRISAK
binds: [1] | [2] | [4]
